US9322042B2, “Thermostable cellulases, and mutants thereof, capable of hydrolyzing cellulose in ionic liquid” (The Regents of the University of California, priority 2009, dated 2016)

Tests used:
Assay type in all cases: biochemical
[1] = Enzymatic hydrolysis of CMC (DNS / Azo-CMC reducing sugar assay) in the presence of EMIM Acetate ([C2mim][OAc])
Experimental: (v/v) were incubated at 37° C. (T. viride), 80° C. (TmaEG, Pho EG). The specific activities were calculated as mmoles of reducing sugars formed per min per mg of enzyme. The specific activities are reported as percentages of residual specific activity, taking the specific activity of IL free enzyme a 100% activity. Error bars indicate the standard deviation.
The enzymetic activity of the cellulases of Trichoderma viride, Thermatoga maritima, and Pyrococcus horikoshii are measured under varying concentrations of EMIM Acetate. […] The enzymes activities are calculated using both the Azo-CMC assay and the DNS assay. […] At 10% EMIM Acetate the % specific activity of T. viride endoglucanase is near 0%, while at 20% EMIM Acetate the % specific activity of T. maritima endoglucanase is nearly 40%.
Enzymatic activity is measured on soluble polysaccharide substrates, CMC, using the dinitrosalicylic acid reducing sugar assay. Briefly, CMC (2% w/v) in […] acetate buffer, (100 mM, pH 4.8) is incubated with enzyme at 80° C. for 30 minutes for Tma and 37° C. and 10 minutes for T. viride. The solution is cooled down to 4° C. and 80 μL of DNS solution is added. The reactants are incubated at 95° C. for 5 minutes and cooled down to room temperature before the absorbance is read at 540 nm. The reducing sugar concentration in the sample is calculated from its absorbance using the standard curve of D-glucose. All experiments are run in triplicate.
The purified recombinant enzymes are assayed in the presence of [C2mim][OAc] and the specific activity results are compared with the cellulase from T. viride. [C2mim][OAc] was selected as the IL of choice. The assays are performed under optimum pH and temperatures for T. maritima and T. viride enzymes. Optimum pH and temperatures for T. maritima Cel5A is pH 4.8 and 80° C., respectively. Optimum pH and temperatures for T. viride cellulase is pH 4.5 and 37° C., respectively. The Pho EG is assayed at 80° C. where its specific activity is around 10% less than at 95° C. […] In the presence of 5% (v/v) [C2mim][OAc] the enzyme loses 60% of its activity while it is undetectable in the presence of 10% (v/v) [C2mim][OAc]. Both the recombinant hyperthermophilic enzymes behave very differently. Tma Cel5A in the presence of 5% [C2mim][OAc] loses 24% of its specific activity. At 15% IL (v/v), Tma Cel5A retains 50% of its specific activity. The highest residual activities are observed with Pho EG which retains 100% activity in 20% IL (v/v) (FIG. 6).
(§1) Enzymatic activity is measured on soluble polysaccharide substrates, CMC, using the 3,5-dinitrosalicylic acid (DNS) reducing sugar assay. Briefly, 2% CMC (w/v) in […] acetate buffer, (100 mM, pH 4.5 and pH 4.8 for T. viride and Tma, respectively, and 100 mM MES buffer, pH 6.4 for P. hori EG) is incubated at 80° C. for 30 min for Tma Cel5A and Pho enzymes and 37° C. and 10 min for T. viride. The solution is cooled down to 4° C. and […] of DNS solution is added. The reactants are incubated at 95° C. for 5 min and cooled down to room temperature before the absorbance is read at 540 nm. The reducing sugar concentration in the sample is calculated from its absorbance using the standard curve of D-glucose and cellobiose. For hydrolysis reactions in the presence of [C2mim][OAc], control reactions with CMC in the presence of IL but without no enzyme is subtracted from each measurement. The solid substrate (Avicel and corn stover) hydrolysis reactions are conducted at 80° C. for 15 h for the recombinant enzymes and at 37° C. for 8 h in the case of T. viride cellulose at the optimum pH for each enzyme. The reaction products are monitored using an Agilent 1200 HPLC equipped with Varian 380-LC Evaporative Light Scattering Detector. The total reaction volumes are […] and shaken at 900 rpm at temperature controlled shakers. Enzyme loadings are 0.4 mg per g of glucan and each data point is measured in triplicate. […]

[2] = Activity assay on insoluble substrate: corn stover
Source text: (§2) Corn stover refers to stalks, leaves and cobs that remain in the fields after the corn kernel harvest and is the largest quantity of biomass residue in the United States and as such is also a LC-biomass source for producing cellulosic ethanol in the United States. [C2mim][OAc] pretreated corn stover is used as a substrate to verify enzymatic efficiency on IL-pretreated biomass and a comparison made with [C2mim][OAc] pretreated Avicel. Avicel is a commercially available microcrystalline cellulose and a good model substrate for analysis. Similar assays are done in the presence of [C2mim][OAc] to simulate real biomass processing and saccharification scenarios. The assay products for the reactions in the presence of IL are detected by high performance anion exchange chromatography (HPAEC). The enzymatic hydrolysis reaction is carried out for 8 h for the T. viride cellulase and 15 h for the hyperthermophilic enzymes, taking into account the half-lives of these enzymes. To compare the amounts of total sugars formed between different reactions, the sum of glucose, xylose and cellobiose are calculated and reported as mmoles of sugars formed per min per mg of enzyme used (Table 7). A comparison of assay results between pretreated and untreated substrate indicates a 2-6 fold increase in hydrolysis products after pretreatment irrespective of the enzyme used, thereby confirming that IL pretreatment can increase the efficiency of hydrolysis of cellulose recovered from biomass. […] The catalytic efficiency of the fungal enzyme however, decreases with increasing IL concentration in the reaction mix. After normalizing for the reaction time and enzyme amounts, the amount of sugars formed is undetectable at 15% [C2mim][OAc]. […] The yield of sugars from Tma Cel5A hydrolysis of pretreated Avicel in the presence of 15% IL decreases by 43% compared to 0% IL, while the decrease is only 10% in the case of Pho EG on the same substrate under similar conditions (Table 7).
(§3) The hydrolysis reactions are performed under pH and temperatures for each enzyme as described herein. The reactions are run over a 14 h period with 5-10 mg of enzyme with 6% (w/v) enzyme loading in optimum buffer for each enzyme and run in duplicate. The reaction products are measured on a HPLC and HPAEC. The amounts of sugars detected are shown in mmoles and normalized with regards to amount of enzyme and time of reaction. Different reactions under each enzyme were run under exactly similar conditions.
as §1

[3] = Enzyme stability: overnight pre-incubation in [C2mim][OAc] and half-life; details: pre-incubation overnight (15 h) in 15% [C2mim][OAc]
[4] = Activity assay on insoluble substrate: Avicel
Source text: as §2, §3, §1

B1: Tma Cel5A: wild-type cellulase of Thermatoga maritima strain MSB8 (Accession No. NP_229549); SEQ ID NO: 20 (protein, listed as Thermotoga maritima)
chain: MGVDPFERNKILGRGINIGNALEAPNEGDWGVVIKDEFFDIIKEAGFSHVRIPIRWSTHAYAFPPYKIMDRFFKRVDEVINGALKRGLAVVINIHHYEELMNDPEEHKERFLALWKQIADRYKDYPETLFFEILNEPHGNLTPEKWNELLEEALKVIRSIDKKHTIIIGTAEWGGISALEKLSVPKWEKNSIVTIHYYNPFEFTHQGAEWVEGSEKWLGRKWGSPDDQKHLIEEFNFIEEWSKKNKRPIYIGEFGAYRKADLESRIKWTSFVVREMEKRRWSWAYWEFCSGFGVYDTLRKTWNKDLLEALIGGDSIE
[1]
  Optimum pH: 4.8
  Optimum temperature: 80 °C
  tolerance to EMIM Acetate compared to T. viride: more tolerant to EMIM Acetate
  activity in 2.9% EMIM Acetate compared with 0%: at least as active in 2.9% EMIM Acetate as in 0% EMIM Acetate
[1]; 0% EMIM Acetate
  % Specific Activity: 100%
  % Specific Activity (Table 5): 31 ± 2^ %
[1]; listed as T. maritima
  activity in 2.9% EMIM Acetate compared with 0%: remain unchanged
[1]; 5% (v/v) [C2mim][OAc]
  loss of specific activity: 24%
[1]; 5% EMIM Acetate
  % Specific Activity: 77%
  % Specific Activity (Table 5): 24 ± 1^ %
[1]; 10% EMIM Acetate
  % Specific Activity: 65%
  % Specific Activity (Table 5): 20 ± 0.8%
[1]; 15% EMIM Acetate
  % Specific Activity: 50%
  % Specific Activity (Table 5): 15 ± 0.5%
[1]; 20% EMIM Acetate
  % Specific Activity (Table 5): 13 ± 0.9%
[1]; 20% EMIM Acetate, listed as T. maritima endoglucanase
  % Specific Activity: 45%
[2]; 0% [C2mim][OAc]
  Sugars produced (sum of glucose, cellobiose and xylose): 3 ± 0.9 µmol/min/mg
[2]; 5% [C2mim][OAc]
  Sugars produced (sum of glucose, cellobiose and xylose): 2 ± 0.3 µmol/min/mg
[2]; 10% [C2mim][OAc]
  Sugars produced (sum of glucose, cellobiose and xylose): 2.4 ± 0.8 µmol/min/mg
[2]; 15% [C2mim][OAc]
  Sugars produced (sum of glucose, cellobiose and xylose): 2.3 ± 0.5 µmol/min/mg
[3]
  activity retained after pre-incubation: 44%
[4]; 0% [C2mim][OAc]
  Sugars produced (sum of glucose, cellobiose and xylose): 1.1 ± 0.1 µmol/min/mg
[4]; 5% [C2mim][OAc]
  Sugars produced (sum of glucose, cellobiose and xylose): 1.0 ± 0.2 µmol/min/mg
[4]; 10% [C2mim][OAc]
  Sugars produced (sum of glucose, cellobiose and xylose): 0.9 ± 0.1 µmol/min/mg
[4]; 15% [C2mim][OAc]
  Sugars produced (sum of glucose, cellobiose and xylose): 0.6 ± 0.1 µmol/min/mg

B2: Pho EG: cellulase of Pyrococcus horikoshii strain OT3 (Accession No. NP_143072); SEQ ID NO: 21 (protein, listed as Pyrococcus horikoshii)
chain: MEGNTILKIVLICTILAGLFGQVVPVYAENTTYQTPTGIYYEVRGDTIYMINVTSGEETPIHLFGVNWFGFETPNHVVHGLWKRNWEDMLLQIKSLGFNAIRLPFCTESVKPGTQPIGIDYSKNPDLRGLDSLQIMEKIIKKAGDLGIFVLLDYHRIGCTHIEPLWYTEDFSEEDFINTWIEVAKRFGKYWNVIGADLKNEPHSVTSPPAAYTDGTGATWGMGNPATDWNLAAERIGKAILKVAPHWLIFVEGTQFTNPKTDSSYKWGYNAWWGGNLMAVKDYPVNLPRNKLVYSPHVYGPDVYNQPYFGPAKGFPDNLPDIWYHHFGYVKLELGYSVVIGEFGGKYGHGGDPRDVIWQNKLVDWMIENKFCDFFYWSWNPDSGDTGGILQDDWTTIWEDKYNNLKRLMDSCSKSSSSTQSVIRSTTPTKSNTSKKICGPAILIILAVFSLLLRRAPR
[1]
  activity in 2.9% EMIM Acetate compared with 0%: at least as active in 2.9% EMIM Acetate as in 0% EMIM Acetate
[1]; listed as P. horikoshii
  activity in 2.9% EMIM Acetate compared with 0%: remain unchanged
[1]; 20% EMIM Acetate
  % Specific Activity: 100%
[1]; 80° C. vs 95° C.
  specific activity at 80° C. less than at 95° C.: around 10%
[2]; 0% [C2mim][OAc]
  Sugars produced (sum of glucose, cellobiose and xylose): 0.58 ± 0.1 µmol/min/mg
[2]; 5% [C2mim][OAc]
  Sugars produced (sum of glucose, cellobiose and xylose): 0.59 ± 0.1 µmol/min/mg
[2]; 10% [C2mim][OAc]
  Sugars produced (sum of glucose, cellobiose and xylose): 0.57 ± 0.1 µmol/min/mg
[2]; 15% [C2mim][OAc]
  Sugars produced (sum of glucose, cellobiose and xylose): 0.59 ± 0.1 µmol/min/mg
[3]
  activity retained after pre-incubation: 70%
[4]; 0% [C2mim][OAc]
  Sugars produced (sum of glucose, cellobiose and xylose): 0.54 ± 0.1 µmol/min/mg
[4]; 5% [C2mim][OAc]
  Sugars produced (sum of glucose, cellobiose and xylose): 0.5 ± 0.1 µmol/min/mg
[4]; 10% [C2mim][OAc]
  Sugars produced (sum of glucose, cellobiose and xylose): 0.52 ± 0.1 µmol/min/mg
[4]; 15% [C2mim][OAc]
  Sugars produced (sum of glucose, cellobiose and xylose): 0.6 ± 0.08 µmol/min/mg
